Here are results for 84 variants from the RNAGym collection of RNA variant scans (doi:10.1073/pnas.2313332121).

First the molecules themselves.
B1: TPR t1 (parent)
chain: GACCAAUCUGCCCUCAGAGCUCGAGAACAUCUUCGGAUGCAGAGGAGGCAGGCUUCGGUGGCGCGAUAGCGCCAACGUCCUCAACCUCCAAUGCAUCCCACCACAUGAUGAUGCCUGAAGAGCCUUGGUUUUUUG

This series covers variants of B1. As to the kind of experiment: polymerase ribozyme fitness, log enrichment relative to wild type (log ratio); higher = more active; in vitro selection for triplet polymerase activity. In outline: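 Each subunit of a heterodimeric triplet polymerase ribozyme was represented by a PCR-built, transcribed mutant library that underwent triplicate single-round in vitro selection with frozen incubation at −7 °C. Extended constructs were recovered by gel excision, streptavidin-bead capture and RT-PCR, and Illumina sequencing of input and output libraries kept genotypes with ≥10 input reads and ≥1 read per output. Fitness is the logarithm of genotype enrichment relative to wild-type enrichment, from inverse-variance-weighted replicate averages, with a logarithm base of 2.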
For G57U U96C G110U, the “polymerase ribozyme fitness (log ratio)” value is -2.25.

Consider G57A C62U, for which the “polymerase ribozyme fitness (log ratio)” value is -0.892. In the case of G57U C73G it was -0.228. For G57C G58A A83U C86A G117U C123U, the “polymerase ribozyme fitness (log ratio)” value is -6.95. In the case of G58A U109A it was -4.85. The figure for G58A A91C C101A C123G is -1.04; for G57A G127U it is -1.83. In the case of U59G C72U C86A it was -2.04; in that of U59G C72U U106G U112A G128C, -4.15; in that of G57U C72U, -0.387. Regarding G58C C73A U81A C89A, the “polymerase ribozyme fitness (log ratio)” value is -3.31. For the variant G58A G60A A68G A100U C115A, the “polymerase ribozyme fitness (log ratio)” value was -5.02.

For the variant C56U U109A, the “polymerase ribozyme fitness (log ratio)” value was -5.25. Turning to G57A G71U C89U, the “polymerase ribozyme fitness (log ratio)” value is -1.34. The figure for U59A C82G is -0.809; for U59A C82U it is -0.407; for G58C C72U it is -0.231. For G57C U116A, the “polymerase ribozyme fitness (log ratio)” value was -2.89. In the case of G60A C73G A108U it was -5.92. In the case of G57U G117U it was -2.86; in that of U59A G71A A91G A100U G113A, -4.54; in that of G58A U125A, -0.652. The figure for U59A C86G C98U is -3.38; for U59G it is -0.0797. Turning to U59A, the “polymerase ribozyme fitness (log ratio)” value turned out to be 0.0811.

As to U59C, the “polymerase ribozyme fitness (log ratio)” value was -0.0998. The figure for G58A G61U is -0.422; for G57C C89G A90G it is -1.31; for G58A C72U it is 0.786. With U59A U96A, the “polymerase ribozyme fitness (log ratio)” value is -1.66. The figure for U59G C88U is 0.0468. The figure for G57C C82U is 0.151; for U59A A111C G120A it is -0.645. The figure for U59A C89U is -0.0389; for U59A C70U U112A it is 0.172. G60A C72G C101U: the “polymerase ribozyme fitness (log ratio)” value is -1.15. On to U59A C70A C102A, for which the “polymerase ribozyme fitness (log ratio)” value is -5.39. Regarding U59C A66U C102U C124U, the “polymerase ribozyme fitness (log ratio)” value was -4.09. The figure for G57U C88A is -1.1; for G57U C88G it is -1.99. The figure for U59C C72U is -0.715.

Regarding U59A C104A, the “polymerase ribozyme fitness (log ratio)” value was -1.75. The figure for G57U U87A C89G C104U is -4.28; for G58U C94U C101G it is -1.75; for G60A A66U A111C it is -2.41. In the case of G60A it was -0.00692; in that of G57A C94G G113A, -3.76.

For the variant G58C A95G U109A, the “polymerase ribozyme fitness (log ratio)” value is -5.73.

As to G57U A84U G110A, the “polymerase ribozyme fitness (log ratio)” value is -2.32.

For the variant U59A C72U A83C, the “polymerase ribozyme fitness (log ratio)” value was -0.884.

G58C C62U C114A G127A U130G: the “polymerase ribozyme fitness (log ratio)” value was -5.36. The figure for G58U G60C G117U C123A is -2.45.

Regarding G57U C72G C94U G122A, the “polymerase ribozyme fitness (log ratio)” value is -3.

For the variant U59C C123U, the “polymerase ribozyme fitness (log ratio)” value was found to be 1.16. Regarding U59G C86U U112C, the “polymerase ribozyme fitness (log ratio)” value was 1.02. The figure for G57C C89U G120C is -1.28; for G57A A84U it is -0.813; for U59C G110U it is -1.54. The figure for U59A C62U is 0.252; for C56U U112A U134A it is 2.39; for G58C G71U C101G U112C U129G it is -0.74. The figure for G57U C99A C124A is -4.71. For the variant U59A C89U U106A, the “polymerase ribozyme fitness (log ratio)” value was -0.429. In the case of G57A A119G it was 0.755; in that of G58U U59A A74U C88A, -0.539; in that of U59A C72A, -1.18. In the case of G58A C99U it was -2.8. On to G57A G71U C124A G135A, for which the “polymerase ribozyme fitness (log ratio)” value worked out at 0.736. The figure for G58A G69A C88G A121U is -2.86. In the case of G57U A121U it was 1.92.

With G60A A105G G120U U133G G135U, the “polymerase ribozyme fitness (log ratio)” value was -3.99. The figure for U59C A91U is -2.41.

Take G60A C73G G110A U112C: the “polymerase ribozyme fitness (log ratio)” value is -2.14.

Regarding G58C C101U, the “polymerase ribozyme fitness (log ratio)” value was -0.386.

On to G57C U78G U112A A118U, for which the “polymerase ribozyme fitness (log ratio)” value was 1.26. In the case of G57C G93A it was -0.552. On to U59G G113A A121U C123A, for which the “polymerase ribozyme fitness (log ratio)” value was -1.97.

Take U59A U125A: the “polymerase ribozyme fitness (log ratio)” value is -0.568.

In the case of U59A U125G, the “polymerase ribozyme fitness (log ratio)” value is -0.415.

Regarding C56U U106C G120A, the “polymerase ribozyme fitness (log ratio)” value was found to be 0.203.

As for G58A C82U G93U C94U U96C C123U, the “polymerase ribozyme fitness (log ratio)” value was -3.17.

Consider G57U G71U U87G, for which the “polymerase ribozyme fitness (log ratio)” value is -0.217. In the case of U59G G113A it was -1.96.

With G58A C70G G120A U129A, the “polymerase ribozyme fitness (log ratio)” value is -3.9.
